Experimental data from patent US20200317768A1 (published 2020).

T1: cynomolgus monkey FcγRIIa1 extracellular domain, His-tagged (cynomolgus monkey)
T1 construct: also called cyno FcγRIIa1; cynoFcgRIIa1
T1 chain: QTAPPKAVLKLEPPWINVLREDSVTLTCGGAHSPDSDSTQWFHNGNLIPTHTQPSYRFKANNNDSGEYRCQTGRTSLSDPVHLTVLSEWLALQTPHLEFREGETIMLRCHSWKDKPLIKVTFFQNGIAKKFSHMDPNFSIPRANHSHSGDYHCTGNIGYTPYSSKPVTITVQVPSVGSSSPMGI


Biological target: T1, cynomolgus monkey FcγRIIa1 …
Assay: SPR; KD of SG1 / KD of variant;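 also: relative to parent M103205H795-SG1 carrying the SG1 human heavy chain constant region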

Binder	KD fold (SG1 = 1) [fold]
M103205H795-MY043/M103202L889-SK1 (antibody, human IgG1, kappa, Substitution put into M103205H795-SG1) heavy: not shown light: DIVMTQSPATLSLSPGERATLSCTSSQSVYHANWLSWFQQKPGQPPKLLIYWASTLAYGVPSRFSGSGSGTDFTLTISSLQPEDAATYYCAGGYGGGRYAFGQGTKVEIKRTVAAPSVFIFPPSDEQLKSGTASVVCLLNNFYPREAKVQWKVDNALQSGNSQESVTEQDSKDSTYSLSSTLTLSKADYEKHKVYACEVTHQGLSSPVTKSFNRGEC	0.6
M103205H795-MY063/M103202L889-SK1 (antibody, human IgG1, kappa, Substitution put into M103205H795-SG1) heavy: not shown light: DIVMTQSPATLSLSPGERATLSCTSSQSVYHANWLSWFQQKPGQPPKLLIYWASTLAYGVPSRFSGSGSGTDFTLTISSLQPEDAATYYCAGGYGGGRYAFGQGTKVEIKRTVAAPSVFIFPPSDEQLKSGTASVVCLLNNFYPREAKVQWKVDNALQSGNSQESVTEQDSKDSTYSLSSTLTLSKADYEKHKVYACEVTHQGLSSPVTKSFNRGEC	2.3
M103205H795-MY073/M103202L889-SK1 (antibody, human IgG1, kappa, Substitution put into M103205H795-SG1) heavy: not shown light: DIVMTQSPATLSLSPGERATLSCTSSQSVYHANWLSWFQQKPGQPPKLLIYWASTLAYGVPSRFSGSGSGTDFTLTISSLQPEDAATYYCAGGYGGGRYAFGQGTKVEIKRTVAAPSVFIFPPSDEQLKSGTASVVCLLNNFYPREAKVQWKVDNALQSGNSQESVTEQDSKDSTYSLSSTLTLSKADYEKHKVYACEVTHQGLSSPVTKSFNRGEC	2.7
M103205H795-MY064/M103202L889-SK1 (antibody, human IgG1, kappa, Substitution put into M103205H795-SG1) heavy: not shown light: DIVMTQSPATLSLSPGERATLSCTSSQSVYHANWLSWFQQKPGQPPKLLIYWASTLAYGVPSRFSGSGSGTDFTLTISSLQPEDAATYYCAGGYGGGRYAFGQGTKVEIKRTVAAPSVFIFPPSDEQLKSGTASVVCLLNNFYPREAKVQWKVDNALQSGNSQESVTEQDSKDSTYSLSSTLTLSKADYEKHKVYACEVTHQGLSSPVTKSFNRGEC	1.3
M103205H795-MY070/M103202L889-SK1 (antibody, human IgG1, kappa, Substitution put into M103205H795-SG1) heavy: not shown light: DIVMTQSPATLSLSPGERATLSCTSSQSVYHANWLSWFQQKPGQPPKLLIYWASTLAYGVPSRFSGSGSGTDFTLTISSLQPEDAATYYCAGGYGGGRYAFGQGTKVEIKRTVAAPSVFIFPPSDEQLKSGTASVVCLLNNFYPREAKVQWKVDNALQSGNSQESVTEQDSKDSTYSLSSTLTLSKADYEKHKVYACEVTHQGLSSPVTKSFNRGEC	1.4
M103205H795-MY071/M103202L889-SK1 (antibody, human IgG1, kappa, Substitution put into M103205H795-SG1) heavy: not shown light: DIVMTQSPATLSLSPGERATLSCTSSQSVYHANWLSWFQQKPGQPPKLLIYWASTLAYGVPSRFSGSGSGTDFTLTISSLQPEDAATYYCAGGYGGGRYAFGQGTKVEIKRTVAAPSVFIFPPSDEQLKSGTASVVCLLNNFYPREAKVQWKVDNALQSGNSQESVTEQDSKDSTYSLSSTLTLSKADYEKHKVYACEVTHQGLSSPVTKSFNRGEC	0.6
M103205H795-MY068/M103202L889-SK1 (antibody, human IgG1, kappa, Substitution put into M103205H795-SG1) heavy: not shown light: DIVMTQSPATLSLSPGERATLSCTSSQSVYHANWLSWFQQKPGQPPKLLIYWASTLAYGVPSRFSGSGSGTDFTLTISSLQPEDAATYYCAGGYGGGRYAFGQGTKVEIKRTVAAPSVFIFPPSDEQLKSGTASVVCLLNNFYPREAKVQWKVDNALQSGNSQESVTEQDSKDSTYSLSSTLTLSKADYEKHKVYACEVTHQGLSSPVTKSFNRGEC	1.5
M103205H795-MY048/M103202L889-SK1 (P271D) (antibody, human IgG1, kappa, Here the P271D molecule is meant; Put into M103205H795-SG1) heavy: not shown light: DIVMTQSPATLSLSPGERATLSCTSSQSVYHANWLSWFQQKPGQPPKLLIYWASTLAYGVPSRFSGSGSGTDFTLTISSLQPEDAATYYCAGGYGGGRYAFGQGTKVEIKRTVAAPSVFIFPPSDEQLKSGTASVVCLLNNFYPREAKVQWKVDNALQSGNSQESVTEQDSKDSTYSLSSTLTLSKADYEKHKVYACEVTHQGLSSPVTKSFNRGEC	0.6
M103205H795-MY124/M103202L889-SK1 (antibody, human IgG1, kappa, Substitution put into M103205H795-SG1) heavy: not shown light: DIVMTQSPATLSLSPGERATLSCTSSQSVYHANWLSWFQQKPGQPPKLLIYWASTLAYGVPSRFSGSGSGTDFTLTISSLQPEDAATYYCAGGYGGGRYAFGQGTKVEIKRTVAAPSVFIFPPSDEQLKSGTASVVCLLNNFYPREAKVQWKVDNALQSGNSQESVTEQDSKDSTYSLSSTLTLSKADYEKHKVYACEVTHQGLSSPVTKSFNRGEC	1.7
M103205H795-MY065/M103202L889-SK1 (antibody, human IgG1, kappa, Substitution put into M103205H795-SG1) heavy: not shown light: DIVMTQSPATLSLSPGERATLSCTSSQSVYHANWLSWFQQKPGQPPKLLIYWASTLAYGVPSRFSGSGSGTDFTLTISSLQPEDAATYYCAGGYGGGRYAFGQGTKVEIKRTVAAPSVFIFPPSDEQLKSGTASVVCLLNNFYPREAKVQWKVDNALQSGNSQESVTEQDSKDSTYSLSSTLTLSKADYEKHKVYACEVTHQGLSSPVTKSFNRGEC	1.4
M103205H795-MY069/M103202L889-SK1 (antibody, human IgG1, kappa, Substitution put into M103205H795-SG1) heavy: not shown light: DIVMTQSPATLSLSPGERATLSCTSSQSVYHANWLSWFQQKPGQPPKLLIYWASTLAYGVPSRFSGSGSGTDFTLTISSLQPEDAATYYCAGGYGGGRYAFGQGTKVEIKRTVAAPSVFIFPPSDEQLKSGTASVVCLLNNFYPREAKVQWKVDNALQSGNSQESVTEQDSKDSTYSLSSTLTLSKADYEKHKVYACEVTHQGLSSPVTKSFNRGEC	2
M103205H795-MY044/M103202L889-SK1 (antibody, human IgG1, kappa, Substitution put into M103205H795-SG1) heavy: not shown light: DIVMTQSPATLSLSPGERATLSCTSSQSVYHANWLSWFQQKPGQPPKLLIYWASTLAYGVPSRFSGSGSGTDFTLTISSLQPEDAATYYCAGGYGGGRYAFGQGTKVEIKRTVAAPSVFIFPPSDEQLKSGTASVVCLLNNFYPREAKVQWKVDNALQSGNSQESVTEQDSKDSTYSLSSTLTLSKADYEKHKVYACEVTHQGLSSPVTKSFNRGEC	1
M103205H795-MY072/M103202L889-SK1 (antibody, human IgG1, kappa, Substitution put into M103205H795-SG1) heavy: not shown light: DIVMTQSPATLSLSPGERATLSCTSSQSVYHANWLSWFQQKPGQPPKLLIYWASTLAYGVPSRFSGSGSGTDFTLTISSLQPEDAATYYCAGGYGGGRYAFGQGTKVEIKRTVAAPSVFIFPPSDEQLKSGTASVVCLLNNFYPREAKVQWKVDNALQSGNSQESVTEQDSKDSTYSLSSTLTLSKADYEKHKVYACEVTHQGLSSPVTKSFNRGEC	3.2
M103205H795-MY045/M103202L889-SK1 (antibody, human IgG1, kappa, Substitution put into M103205H795-SG1) heavy: not shown light: DIVMTQSPATLSLSPGERATLSCTSSQSVYHANWLSWFQQKPGQPPKLLIYWASTLAYGVPSRFSGSGSGTDFTLTISSLQPEDAATYYCAGGYGGGRYAFGQGTKVEIKRTVAAPSVFIFPPSDEQLKSGTASVVCLLNNFYPREAKVQWKVDNALQSGNSQESVTEQDSKDSTYSLSSTLTLSKADYEKHKVYACEVTHQGLSSPVTKSFNRGEC	0.6
M103205H795-MY196/M103202L889-SK1 (antibody, human IgG1, kappa, Substitution put into M103205H795-SG1) heavy: not shown light: DIVMTQSPATLSLSPGERATLSCTSSQSVYHANWLSWFQQKPGQPPKLLIYWASTLAYGVPSRFSGSGSGTDFTLTISSLQPEDAATYYCAGGYGGGRYAFGQGTKVEIKRTVAAPSVFIFPPSDEQLKSGTASVVCLLNNFYPREAKVQWKVDNALQSGNSQESVTEQDSKDSTYSLSSTLTLSKADYEKHKVYACEVTHQGLSSPVTKSFNRGEC	1.3
